In the supplement of paper PMC9170038:

The sequences below were run on MS2 coat protein (assay: apparent KD of MS2 coat protein; higher = weaker reporter binding). Conditions: Eterna round: R107; input ligand: theophylline 20 uM.
Method in brief: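 Designed RNA switches were transcribed on-chip from Illumina sequencing clusters. SNAP-549-labelled MS2 coat protein was titrated onto them in twofold steps from 0.7 or 1.5 nM to 3 µM in 100 mM Tris-HCl pH 7.5, 80 mM KCl, 4 mM MgCl2, either without or with constant ligand. Apparent KD reflects the per-design median of normalised cluster binding-curve fits.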

Row | Sequence | apparent KD of MS2 coat protein [nM]
1 | UGUAUGUGAUCUGAUACCAGAGUGACGCGAAAGCGAACCUGAGGAUCACCCUGGUAAUAACUCCCUUGGCAGCAGAUCGCAUACU | 44.3
2 | AACAUGAGGAUCACCCAUGUGUCCUCGAAACGAGGACCGGUACGGCCGCCACUCGAAUAAGGUGUUGACGAAAAGUCAGCACCAA [Mat - Exclusion - Trytophan A - D17] | 314
3 | GCUACAUGAGGAUCACCCAUGUGUACUGAAGGAGCGGCGAAAACGCCAGGUAGGUCGCAGUAUGUGGCUCUGGGCACGAGAUGGC [#02 Same State - Arginine A] | 40
4 | AGUGUUAUAACUGAUACCAGACCUUUGCUUAUACAUGAGGAUCACCCAUGUAAAAUGGCGGUCCCUUGGCAGCAGAGAAUACACA [#08 Same State - Theophylline B] | 32.9
5 | UCAUAUUAGUGAGAUGUAAGGUAUCAUGAUACCAGUAGAUAAUUAUACCCUUGGCAGCAUAACAUGAGGAUCACCCAUGUACAUG [Ab] | 21.3
6 | UUUUUUAACAUGGCGUAUCGGAAAACCGAUACCAGUACAGAAAUGUACCCUUGGCAGCGGCGUUUUACAUGAGGAUCACCCAUGU [Ex Theophylline A 3] | 65
7 | ACAUGAGGAUCACCCAUGUAUGACUAUCCUCGAGGACCGGUACGGCCGCCACUCGAAGGAGUGGCUCGCGAGUGCGCACUUGCAA [5' end] | 16.5
8 | GUCUUGGAAUCGGCCGCCACUACAUGAGGAUCACCCAUGUGGACAAAUAGGGUUUUUAAGCUCGGUAGGACCGGGAUUCGGACAU [Mamaon] | 15.9
9 | GUGUGGCGCUCGGCCGCCACUCAGACAUGAGGAUCACCCAUGUAGAACAUGAGGAUCACCCAUGUGAGGACCGGGAGACACACGA [Exclusion Tryptophan B GF11] | 288
10 | ACGUCUCGAAAACUCGUAGUAACAAUAGAUACCAGUAGCGAGAGUUACCCUUGGCAGCUACAUGAGGAUCACCCAUGUACGAGGA [XTheo A #27] | 26
11 | AGGACGGCCGGAAGGAGCGGUACAUGAGGAUCACCCAUGUACCUCUGGGCAUCCGUAGUGUGCCAGGUAGGUCGCCGGUUGCGGG [Veatgema] | 14.5
12 | AUUUUUCUAUCAGAUACCAGACAACUCCAAACAUGAGGAUCACCCAUGUAUUGGGUGUUCGUCCCUUGGCAGCUGUUAAUGUUAA [JR_SSTheophyB_Sub003] | 18.1
13 | AGCACUGUGACGGCCGCCACUAUAUUAGGGUGGUAGGGUUCAUAAAUACAUGAGGAUCACCCAUGUAGGACCGGGUCUCAGUGCA [Omei Trp Exc B A v1] | 15.9
14 | UCGAAUGCGGCGGCCGCCACUCGCGGAUAACGAUAGCUUAACAUGAGGAUCACCCAUGUGUCAUGGAGGACCGGGCCCAUACCGU [azamullin] | 36.1
15 | CAAGAAGUAACUGAUACCAGUGUACUGACAUGAGGAUCACCCAUGUUGGGUUUUGUUGUACACCCUUGGCAGCAGAAUCUUCUUG [AstrosExyTheB#22] | 74.8
16 | UACAUGAGGAUCACCCAUGUGUAACCAGAAGGAGCGUGCGAAAGCACAGGUAGGUCGCUGGUGGGUUUAGGUUUAAUAGGUGUAU [SSAA NP+V+V2 #4 +-Same Structure] | 54.1
17 | UACUUGCUGACGGCCGCCACUAGAACAUGAGGAUCACCCAUGUAUCUAGUGGCAAUCCUCAUGACUAGGACCGGGUCAGCAAGAU [(Trp1)-(Ms2)-(T)'-(M)'-(Trp2)_Design1] | 10.4
18 | AGCGACAUGCGUGAUACCAGCUACAUGAGGAUCACCCAUGUCAGUAGGAAACUGCUGUGUAGCCCUUGGCAGCACAGUGCAUGUC [Exclusion - Theophylline B (Freestyle 27)] | 47.5
19 | UCGUGUAUUUCGGAUACCAGUGAAAUCGAUACAUGAGGAUCACCCAUGUGAGAGGAUGUACACCCUUGGCAGCUGUAUAUAUCUG [fgfmullin] | 38.7
20 | GAGCUCGUGGACUGGCGUGCUCCGCUCCGUCGAGGACCGGUACGGCCGCCACUCGACAUGAGGAUCACCCAUGUGCGAGCUCGCU [#1 Exclusion - Tryptophan A Attempt #22 (HarryS)] | 113

Same assay, conditions: Eterna round: R107; input ligand: theophylline 2 mM

Row | Sequence | apparent KD of MS2 coat protein [nM]
21 | AUUGACGUUGCGGCCGCCACUAGGCGUUCCCGGACAUGAGGAUCACCCAUGUGCUAGAGUGUAACUAGGACCGGGUAACCUCAGC [Verevean] | 260
22 | AAUCGUAAGGCGGCCGCCACUACACAUGAGGAUCACCCAUGUCUCGCAGGCUUGCGUUGGGAUAGUAGGACCGGGCCAGUAAUAA [Exclusion - Tryptophan B (Freestyle 14)] | 26.6
23 | GCGGGACUUUCGGCCGCCACUGAGAGAGUCGUGUGAACAUGAGGAUCACCCAUGUAAUAUAUAUACAGGACCGGGAGGGUUGCGC [4.Q] | 14.7
24 | AUGUACAUGACGGCCGCCACUACACUGAAAGUGGUCCAGAACAUGAGGAUCACCCAUGUAUCAAGUAGGACCGGGUCAUGUACAU [Tryp B Ex t5] | 697
25 | UGUUUGGUGCGCGAGUGUUGGAUAAUUGAUACCAGUGUAGAUGUGCGCCCUUGGCAGCGAAUCCGAACAUGAGGAUCACCCAUGU [5.Z] | 35.7
26 | GCUACAUGAGGAUCACCCAUGUCAGCUACACGAGGACCGGUACGGCCGCCACUCGGUAGCGCUCAUCCUCGUGUGUAAGUCAAGU [Xedier] | 97.5
27 | AACACAUGAGGAUCACCCAUGUCCAUGUACCGAGGACCGGUACGGCCGCCACUCGACAUGAGGAUCACCCAUGUUCCAUGUUGUC [Same State Tryptophan A 3] | 146
28 | AGCUCGCAUCCUCUAGCGUCAAAGACGCCUCGAGGACCGGUACGGCCGCCACUCGAUAUGAGGAUCACCCAUAUCAAAGCGAGCA [TrypAX 2 #SwitchBubble #AlternativeMS2 #MS2Late #CuTurnoff] | 75.5
29 | UGUAUGGACUGAAGGAGCGGUUGAUAACAUGAGCAUCAGCCAUGUAAUAAGGCGAAAGCCAACCAGGUAGGUCGCAGUCCAUACU | 9.11
30 | GGAUAGGACACGGCCGCCACUACCUAGGAUACUAGCAACAUUUGGGUACACGAGGAUCACCCGUGUAGGACCGGGUGUCCUAUCG | 13.6
31 | GGUUUGCGGCCUGAUACCAGUGAUGGAUGAACCCUAGUCAACAUGAGGAUCACCCAUGUUCACCCUUGGCAGCAGUGACGCUCGA [theeternabot_exclusion_MS2_Theo_B_34] | 354
32 | GCCGCGGCCGCGAUACACAUGGGUGUGUAACGAGGACCGGUACGGCCGCCACUCGAGAUGGUGCACAUGAGGAUCACCCAUGUGC [Exclusion Tryp A GF15] | 19.3
33 | UGUAUGUGAUCUGAUACCAGCUAGCGGAAACGCAAAAGCUUGAGGAUCACCCAAGUGGAAAGCCCUUGGCAGCAGAUCGCAUACU [Denovo 1 #StaticStem #AlternativeMS2] | 9.89
34 | CGUAGUAUCAGACAUGAGGAUCACCCAUGUCGAGGACCGGUACGGCCGCCACUCGGCAGUUUGCGUCCUCAGGUACUCCAGGUAA [Larirexea] | 26.1
35 | GGGCCUAUAAGCAGGCCCACAGCGGGUGAUACCAGCAAUAAAACUUGCCCUUGGCAGCACACAGCUACAUGAGGAUCACCCAUGU [Beator] | 70.6
36 | UGUAUGUGAUCUGAUACCAGAGUGACGCGAAAGCGAACCUGAGGAUCACCCUGGUAAUAACUCCCUUGGCAGCAGAUCGCAUACU | 20.7
37 | AACAUGAGGAUCACCCAUGUGUCCUCGAAACGAGGACCGGUACGGCCGCCACUCGAAUAAGGUGUUGACGAAAAGUCAGCACCAA [Mat - Exclusion - Trytophan A - D17] | 338
38 | GCUACAUGAGGAUCACCCAUGUGUACUGAAGGAGCGGCGAAAACGCCAGGUAGGUCGCAGUAUGUGGCUCUGGGCACGAGAUGGC [#02 Same State - Arginine A] | 41.3
39 | ACAUGAGGAUCACCCAUGUAUGACUAUCCUCGAGGACCGGUACGGCCGCCACUCGAAGGAGUGGCUCGCGAGUGCGCACUUGCAA [5' end] | 13.6
40 | GUCUUGGAAUCGGCCGCCACUACAUGAGGAUCACCCAUGUGGACAAAUAGGGUUUUUAAGCUCGGUAGGACCGGGAUUCGGACAU [Mamaon] | 18
